Results: US20230192886A1 (IMMATICS BIOTECHNOLOGIES, published 2023)

B1: TCR R16P1E8 (TCR, V domains shown)
V domain 1: QKEVEQDPGPLSVPEGAIVSLNCTYSNSAFQYFMWYRQYSRKGPELLMYTYSSGNKEDGRFTAQVDKSSKYISLFIRDSQPSDSATYLCAMSEAAGNKLTFGGGTRVLVKP
V domain 2: EAGVAQSPRYKIIEKRQSVAFWCNPISGHATLYWYQQILGQGPKLLIQFQNNGVVDDSQLPKDRFSAERLKGVDSTLKIQPAKLEDSAVYLCASSYTNQGEAFFGQGTRLTVVE
B2: TCR R17P1D7 (TCR, V domains shown)
V domain 1: QTVTQSQPEMSVQEAETVTLSCTYDTSESDYYLFWYKQPPSRQMILVIRQEAYKQQNATENRFSVNFQKAAKSFSLKISDSQLGDAAMYFCAYRWAQGGSEKLVFGKGTKLTVNP
V domain 2: DIYQTPRYLVIGTGKKITLECSQTMGHDKMYWYQQDPGMELHLIHYSYGVNSTEKGDLSSESTVSRIRTEHFPLTLESARPSHTSQYLCATELWSSGGTGELFFGEGSRLTVLE

Molecular target: PRAME-004 peptide presented by HLA-A*02 on target cells (peptide-loaded T2 cells); PRAME-004-presenting tumor … (human)
Assay: cell-based or functional assay

Row | Binder | EC50 of IFNγ release, T2 cells loaded with PRAME-004 from 10 µM to 10 pM (FIG. 12) [µM] | EC50 of IFNγ release, T2 cells loaded with PRAME-004 from 10 µM to 10 pM (FIG. 13) [nM]
1 | B1 | ~1 | –
2 | B2 | – | 1.83
